assay: yeast display, Sf9 membrane polyspecificity reagent, FACS + sequencing; frameworks hold sequencing errors
Method in brief: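 A nanobody's polyreactivity label depends on the gate it was sorted from. Yeast display cells were stained with 10% biotinylated, detergent-solubilized Sf9 membrane reagent for 1 hour at 4 °C, enriched on streptavidin microbeads and sorted by FACS. The low and high (top ~1%) gates were set on anti-HA fluorescence for expression and streptavidin fluorescence for reagent binding.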

| Sequence | polyreactivity (PSR sort gate) |
| --- | --- |
| QVHLVESGGGLVQAGRSLRLSCAASGIIFQLYAMGWYRQPPGKERELVATISSVGSTNYADSVKGRFTISRDNAKNTVYLEMTSLNPEDTAVYYCNAARYGWGYFYGLNYWGQGTQVTVSS | low polyreactivity |
| QVHLVESGGGLVQAGRSLRLSCAASGLTFGTNPMGWYRQAPGKERELVAAITWRGGSTSYADSVKGRFTISRDNAKNTVYLQMNSLKPEDTAVYYCAVRLRYPGNTFYDWGQGTQVTVSS | high polyreactivity |
| QVHLVESGGGLVQAGRSLRLSCAASGRTSAYYAMGWYRQAPGKERELDAGITRGGRTNYADSVKGRFTISRDNAKNTVYLQMNSLKPEDTAVYYCAAKYGYYWNSRTSGYWGQGTQVTVSS | high polyreactivity |
| QVHLVESGGGLVQEGGSLRLSFAASGSSFIWYGMGWYRQAPGKARELVATITSSGSTNYADSVKGRFTISRDNAKNTVYLQMNSLKPEDTAVFYCAKRGPLRHYSWGQGTQVTVSS | low polyreactivity |
| QVHLVESGGGLVQSGGSLRLSCAASGTIFEANVKGWYRQAPGKERELVATISSDGTSTYYADSVKGRFTISRDNAKYTVYLQMNSRKPEDTAVYYCNADAGAGWYPDSKYAYDYWGQGTLVTVSS | low polyreactivity |
| QVHLVESGGGLVQSGGSLRLSCAATGNIFGRYAKGWYRQAPGKERELVAGISRGVSTSYADSVKGPFTISRDNAKNTVYLQMYSLKPDDTAVYYCTKRPWYLSDYWGQGTEVTVSS | low polyreactivity |
| QVHLVESGGGVLQAGVSLRLSCAASGFTFYGNAMGWYRQAAGKERELVAANSGRGGSTYYADSVKGRFTISRDNEKYTVYLHMNSLKPEDTAVYYCDIYVSWPLYYYWGQGTQVTVSS | low polyreactivity |
| QVHLVESGGGVVQAGGSLRLSCAASGFTFVPYAMGWYRQAPGKETETNADSVKGRFTSSRDNAKNTVYLQMNSLKPEDTAVYYCAAGGYGPYDYWGQGTQVTVSS | low polyreactivity |
| QVHLVESGGGVVQAGGSRRLSCAASGSIIHDNAMGWYRQAPGKERELVADITWSGGSTYYADSVKGRFTISRDNAKITVYLQMNSLKPEETAVYDCAAGSGHWYYYDFDYWGQGTLVTVSS | high polyreactivity |
| QVHLVESGGRLVQAGGSLRLSCAASGFIFQWYAMGWYRQAPGKERELVAAINSSGSTNYADSVKGRFTISRDNAKNTVYLQMNSLKPEDTAVYYCAAHWRYGRKFDYWGQGTQVTVSS | high polyreactivity |
| QVHLVESGGRLVQAGGSLRLSCAASGSTFTINVMGWYRQAPGKERELVADISWSGGSTYYADSVKGRFTISRDNAKNTVYSQMNSLYPVYTAVSYCATDGAYWTYYSWYDYWGQGTQVTVSS | low polyreactivity |
| QVHLVESGGVLVQAGCSLRLSCSASGSTFDFNAMGWYRQAPGKERELVAAITSGDSTNYADSVQGRFTISRDNAKNTVYLQMNSLKPEDTAVYYCAARYYWKYITSAARRAGSDYWGQGTQVTVSS | low polyreactivity |
| QVHLVESRGGLVQAGGSLRLSCAASGFIFRWYAMGCYRQAPGKERELVAAISSSSGSTYYADSVKGRFTISRDNAKNTVYLQMNSLKPEDTAVYYCAAESNRRFEGEYWGQGTQVTVSS | high polyreactivity |
| QVHLVESVGGLVQAGGSLRLICAASGRIFRRYAMGWYIQAPGKEREFVAAISYGGGSTYYADSVKGRFTISRDNAKNTVYLQMNSLKPEDSAVYYCNADVPKSLLLYYPWGYGYWGQGTQVTVSS | low polyreactivity |
| QVHLVESVGGLVQAGGSLRLSCAASGRTSGANAMGWYRQAPGKERELVAAIRYSVGSTYYADSVKGRFTISRDNAKNTVYLQMISLKPEDTAVYYCAARGYPKRGGYWGQGTQVTVSS | high polyreactivity |
| QVHLVETGGGLVQAGGSLRLSCAASGSIFFVYAMGCYRPAPGKERELVAAISNDGSTNYADSVKGRFTISRDNAKNTVYLQMNCLIPEDTAVYYCAKDTRTKYDYWGQGTQVTVSS | low polyreactivity |
| QVHLVQSGGGLVQAGGSLRLSCAASGRIFKFYAMGWYRQAPGKEMELVATISRGGSTYYADSVKGRFTISRDNAKNTVYLQMNSLKPEDTAVYYCAKQRERYYWFGAWSYDYWGQGTQVTVSS | low polyreactivity |
| QVHLVQTGGGLVQAGGSLRLSCAASGRIFRTNGMGWYRQAPGKERELVAAISSGDSTYYADSVKVRFTISRDNAKNTVYLQMNSLKPEDTAVYYCAADFGRKGGPGYDYWGQGTQVTVSS | low polyreactivity |
| QVHLYESGGGLVQLGGSLRLSCAASGTIFDYYTMGWYSQAPGKEREFVAAIAYGTNTYYADSVKGRFSISRDNAKHTVFLLLYSLKPEDTAVYYCATVGPRGLYYYWGQGTQVTVSS | high polyreactivity |
| QVHVVESWGGLVQAGGSLSLSCAASGLIIWMYTMGWYRQAPWKERELVAAIDWSGGSTYYADSVKGRFTISRDNAKNTVYLQMNSLKPEDTAVYYCAADPEPSYRFDYWGQGTQVTVSS | low polyreactivity |
| QVKHVESGGGLVQAGGSLRLTCAASGSIFYRNAMGWYRQAPGKERELVAGISRRGGSTYYADSVKGRFTMSRDNAKNTVYLQMNSLKPEDTAGYYCAADFAWVRLTYGYCGQGTQVTVSS | low polyreactivity |
| QVKIVESGGGLVQAGGSLRLSCAASGSTYYYYSMGWYRQAPGKERELVAAITGSGTSTYYADSVKGRFTISRDNAKNTVYLQMNSLKPEYTAVYYCAAEYPWYYYIDVSYTDYGYWGQGTQVTVSS | high polyreactivity |

| Sequence | polyreactivity (PSR sort gate) |
| --- | --- |
| QVKLEDSGGGLVQAGGSLRLSCAASGSTFEKYVMGWYRQAPGKERELVAAITYSGDSTYYADSVKGRFTISRDNAKNTVYLQMNSLKPEDTAVYYCAAKTTRTSIPRKGRGYYYWGQGTQVTVSS | high polyreactivity |
| QVKLEESGGGLVQAGGSLRLSSAASGYTIGIYAMGWYRQAPGKERELVAAISADGGITYYADSVKGRFTISRDNAKNTVYLQMNSLKPEDTAFYYCNTLVDQDAYAGFRLDYWGQGSQVTVSS | low polyreactivity |
| QVKLGESGGGLVQAGGSLLLSCAASGRTFWYYTMGWYRQAPGKERELVASITAGSGTTYYADSVKGRFTISRHNAKNTVYFQMYSLKPEDSAGYYCSSKNTPSFFYYDRYDYWGHGTQVTVSS | low polyreactivity |
| QVKLQGSGGGLAQAGDSLRLSCAASGTIFSEYNNGLVSPGAGQRTRTCCRYWCWGNTYYADSAKGRFTTSRDNAKNSVYLQKNSLKPEDTAVYYCAFNLPYPSRHIYRGQGTQVTVSS | high polyreactivity |
| QVKLVESAGGLVQAGGSLRLSCAASGSIFPYNVMGWYRQAPGKERELVAAITRRGGSTYYADSVKGRFTISRDNAKNTVYLQMNSLKPEDSAVYYCAAVPYPRGIGYDYWGQGTQVTVSS | high polyreactivity |
| QVKLVESAGGLVQAGGSLRLSCPASGIIFGLYTMGWYRQAPGKERELVAAISDSGGRTYYADSVKGRFTISRDNVKNTVYFQMNSRKPADTAVYYCATRWPNYGGYYYWGLGTQVTVSS | high polyreactivity |
| QVKLVESGAGLVQAGGSLRLSCAASGITFYWYAIGWYRPAPGKEMELVADITSSGSSTYYADSVKGRFTISRDNAKNTVYLQMNSLKPEDTAVYYCNARPGRRSLRSRTYDYWGQGTQVTVSS | high polyreactivity |
| QVKLVESGGGKVQAGGSLRLSCAASGYTFDPNAIGWYRQEPGKERELVAAISRIGGSTYYADSVKGRFTISRDNAKTTLYVQMNSLKPEDTAVYYCAVDWYLTGHWADDYWGQGTQVTVSS | low polyreactivity |
| QVKLVESGGGLVHAGGSLRLSCSASGRIIGFNAMGVYRQAPGKERELVASIRTTGGSTRYADSVKGRFTISRDNAKNTVSLQMNSLKPEDTAVYYCAARWGKTRWQYNYWGHGTQVTVSS | high polyreactivity |
| QVKLVESGGGLVKAGGSLRLSCAASGSISDWYAMGWYIQAPGKERELVAAISNSDGSTYYADSEKGRFTISRDNAKNTVYLQMNSLQPEYTAVYYCNASDAHEDRKSEYWGQGTQVTVSS | low polyreactivity |
| QVKLVESGGGLVPAGGSLRLSCAASGNIFVNYAMRWYRQAPGKERELVASINYNGGITYYADSVKGRFTISRDNAKNTVYLQMNSLKPEDTAVYDCDKDGGGLLRWYTDEYDYWGQGTQVTVSS | low polyreactivity |
| QVKLVESGGGLVQAGGILRLSCAASGSIIVGNPMGWYRQAPGKERELVAAISRSGGSTYYADSVKGRFTISRDIAKNTVYLQMNSLKPEDTEVYYCASVRKQASGVDYWGQGTQVPVSS | high polyreactivity |
| QVKLVESGGGLVQAGGRLRLSCAASGFTCNVYAMGLYRQAPGKERELVADISGTGGSTYYADSVKGRFTISRDNAKNTVYLQMNSLKPEDTAVYYCSSGTRNFDFWGQGTQVTVSS | high polyreactivity |
| QVKLVESGGGLVQAGGSLLLSCAASGRTFYRYAMGWYIQAPGKERELVARISSGGGTYYADSVKGRFTISRDNAKNTVYLQMNSLKPEVTAVYYCNADVYRWSGSYTGWDSWHDYWGQGTQVSVSS | low polyreactivity |
| QVKLVESGGGLVQAGGSLRLSCAASGFIFPDYAMGWYRQAPGKERELVAAITSSGGRTYYADSVKGRFTISRDNAKNTVYLQMNSLKPEDTAVYYCAARTISPRGYGSDYWGQGTQVTVSS | high polyreactivity |
| QVKLVESGGGLVQAGGSLRLSCAASGFIFSNNAMGWYRQAPGKERELVAAITSSGGRTYYADSVKGRFTISRDYAKNTVYLQMNSLKPEDSSVYYCAAARYDIMGYWGLGTQVTVSS | high polyreactivity |
| QVKLVESGGGLVQAGGSLRLSCAASGFTFTWYVMGWYRQAPGKESELVAAISRSGGSKYYADSVKGRFTISRDNAKNTVYLQMNRLKPEDTAVYYCADVGTSSYDYWGQGTQVTVSS | high polyreactivity |
| QVKLVESGGGLVQAGGSLRLSCAASGGTFTLYAMGWYRQAPGKERELVAAISTSGGSTYYADSVKGRFTISRDNAKNTVYLQMNSLKPEDTAVYYCAAVTRYAGRIRYGYWGQGTQVTVSS | high polyreactivity |
| QVKLVESGGGLVQAGGSLRLSCAASGIIFTFYSMGRYRQAPGKERELVAAITGSGGSTYYADSVKGRFTISRDNAKNSVYLQMNSLKPEDTAVYYCAADGPYGYYYGHYGYWGHGTQVTVSS | low polyreactivity |
| QVKLVESGGGLVQAGGSLRLSCAASGITFVSYAMGWYTQAPGKEREFVAAINRSGGSTYYADSVKGRFTISRDNAKNTVYLQMNSLKPEDTAVYYCAARRNLAYYHSGYWGQGTQVTVSS | high polyreactivity |
| QVKLVESGGGLVQAGGSLRLSCAASGLTFATYAMGWYREAPGKERELVAAISYSGDSTYYADSVKGRFTISRDNAKNTVYLQMNSLKPEDTAVYYCAKRLKRYRSSYKTFKLDYWGQGTQVTVSS | high polyreactivity |

Source: the nanobody polyreactivity screen of Harvey et al. (2022)
